Assay results published in patent publication US20230071609A1 (Genentech, published 2023).

T1: circulating APOL1 in normal human serum (human, UniProt O14791 28-398)
T1 sequence (looked up): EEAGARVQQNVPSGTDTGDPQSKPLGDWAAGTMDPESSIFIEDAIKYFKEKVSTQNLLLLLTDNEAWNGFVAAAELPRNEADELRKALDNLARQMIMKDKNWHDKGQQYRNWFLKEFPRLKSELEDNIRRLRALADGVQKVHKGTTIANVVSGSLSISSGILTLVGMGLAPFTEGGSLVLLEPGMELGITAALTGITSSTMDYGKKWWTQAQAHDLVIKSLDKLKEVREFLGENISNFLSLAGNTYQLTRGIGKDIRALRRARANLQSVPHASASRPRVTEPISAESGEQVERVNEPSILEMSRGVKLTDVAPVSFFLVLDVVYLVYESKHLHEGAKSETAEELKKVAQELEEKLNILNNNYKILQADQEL

T2: endogenous human APOL1 (wild-type immortalized podocytes; also JHH-1 cells, kidney and liver tissue) (human, UniProt O14791 28-398)
T2 construct: whole, on cells; Cell or tissue and permeabilization are told under assay; also called podocyte APOL1; endogenous APOL1
T2 sequence (looked up): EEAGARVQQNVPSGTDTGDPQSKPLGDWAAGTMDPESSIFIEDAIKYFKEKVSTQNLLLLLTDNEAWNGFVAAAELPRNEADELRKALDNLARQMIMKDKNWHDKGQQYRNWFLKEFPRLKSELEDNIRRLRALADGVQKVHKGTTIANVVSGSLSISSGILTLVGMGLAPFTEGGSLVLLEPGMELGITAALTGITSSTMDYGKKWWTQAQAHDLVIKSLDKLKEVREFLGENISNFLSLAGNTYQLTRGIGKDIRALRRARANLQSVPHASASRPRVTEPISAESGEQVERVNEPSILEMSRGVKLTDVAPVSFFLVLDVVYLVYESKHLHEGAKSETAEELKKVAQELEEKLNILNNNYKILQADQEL


What was measured:
[1] = biological target: T1, circulating APOL1 in normal human serum; assay: cell-based or functional assay
[2] = biological target: T1, circulating APOL1 in normal human serum; assay: summary of the Examples: trypanolysis blocking as proxy for serum APOL1
Procedure: The trypanolysis assay used herein to text specificity of antibodies for serum APOL1 is as follows. Trypanosoma brucei brucei were obtained from ATCC and cultured in HMI-9 media containing IMDM (Genentech), heat-inactivated (56° C. for 30 min) FBS (Seradigm IXL9/06807/GEN), 1% serum plus (Sigma 14008C), HMI-9 (Genentech) and 1% hypoxanthine (Genentech). Trypanosome lysis was performed by treating 1×10⁵ Trypanosomes with serial dilutions of NHS or recombinant APOL1 for 16 h in a total of 100 μl. Live cell read out was done by the Alamar Blue assay as per the manufacturer's protocol, (Thermo Fisher, DAL1100). Briefly 10 μl of Alamar Blue was added to each well, incubated at 37° C. for 4 h. Red fluorescence, indicating live trypanosomes, was measured on a SpectraMax® fluorimeter powered by SoftMAX® PRO with excitation at 530 nm and emission 590 nm. For the antibody blocking assay, 1% normal human serum was preincubated with 1-10 μg/ml of anti-APOL1 antibody or media at room temperature for 20 minutes followed by addition of trypanosomes. After 16 h, the Alamar Blue assay was performed as above and background values for media only were subtracted and % blocking calculated by normalizing to no antibody control.
Trypanosoma brucei brucei were obtained under MTA from ATCC and cultured in HMI-9 media containing IMDM (Genentech), heat-inactivated (56° C. for 30 min) FBS (Seradigm IXL9/06807/GEN), 1% serum plus (Sigma 14008C), HMI-9 (Genentech) and 1% hypoxanthine (Genentech). Trypanosome lysis was performed by treating 1×10⁵ Trypanosomes with serial dilutions of NHS or recombinant APOL1 for 16 h in a total of 100 μl. Live cell read out was done by the Alamar Blue assay as per the manufacturer's protocol (30) (Thermo Fisher, DAL1100). Briefly 10 μl of Alamar Blue was added to each well, incubated at 37° C. for 4 h. Red fluorescence, indicating live trypanosomes, was measured on a SpectraMax fluorimeter powered by SoftMAX PRO with excitation at 530 nm and emission 590 nm. For the antibody blocking assay, 1% normal human serum was preincubated with 1-10 μg/ml of anti-APOL1 antibody or media at room temperature for 20 mins followed by addition of trypanosomes.

[3] = biological target: T2, endogenous human APOL1 (wild-type …); assay: summary of the Examples: podocyte flow cytometry
Procedure: (§1) Cells were harvested with 5 mM EDTA in PBS, washed once with growth media and twice with PBS. Approximately 0.5×10⁶/m1 of cells resuspended in PBS were incubated with anti-APOL1 antibodies for 1 h on ice. Following two PBS washes, 2 μg/ml of Alexa488 anti-mouse or anti-rabbit (Invitrogen A11029 and A21206, respectively) was used for 1 h on ice for detection. Cells were washed twice in PBS and resuspended in PBS with 1 μg/ml propidium iodide. Signals were read in a FACSCalibur3 (Becton Dickinson), with the exception of FIG. 8A and FIG. 14, which used a FACSCelesta, and data was analyzed using FlowJo v8.4.5. Mean fluorescence intensities were plotted in PRISM v7 after subtraction of secondary antibody alone background. For low pH experiments, cells were incubated with the antibodies in the presence of PBS pH 7.0 or PBS pH 5.5 for an hour on ice and detected with secondary antibodies at neutral pH.

[4] = biological target: T2, endogenous human APOL1 (wild-type …); assay: podocyte flow cytometry
Procedure: In FIG. 25A, live WT (left) or APOL1 KO (right) podocytes were incubated on ice for 1 h (without fixation or permeabilization) with 2.5 μg/ml 3.6D12 (an APOL2 cross-reactive mAb). “2° Ab” is Alexa488 anti-mouse secondary antibody alone; “—IFNγ” is untreated; “+IFNγ” is IFNγ-treated cells. There is a shift on WT, but not KO cells (which express APOL2 but not APOL1). […] Thus, the shift seen with 3.6D12 in WT cells must represent APOL1, and increases with IFNγ, as expected.
as §1

IC50 of blocking of serum APOL1-mediated trypanolysis (Alamar Blue) [1] [nM]	binding result [2]	Binder	binding result [3]	binding result [4]
0.5	–	antibody 3.7D6 (antibody, V domains shown, Mouse mAb, cloned as murine IgG2a LALAPG; those versions are not written separately; also called PFD antibody 3.7D6) VH: QIQLVQSGPDLKKPGETVKISCRTSGYAFTNYGVNWVKQAPGKGLKWMGWINTNTGQTTYAEEFRGRFAISLETSASTAFLTISNLKNEDSATYFCARLIYDGDYISSDFWGQGTTLTVSS VL: DIQMTQSPDSLSASVGETVTITCGASENIYGALNWYQRKQGKSPQLLIYGATNLADGMSSRFSGSRSGRQYSLKISSLHPDDVATYYCQNALSMPYTFGGGTKLEIKR	–	–
–	binds	rabbit monoclonal antibody 5.17D12 (antibody, V domains shown, Rabbit mAb (Method #5), recombinant; also called rabmab 5.17D12) VH: QSLEESGGDLVKPGASLTLTCTASGFSFSSNYYMCWVRQAPGKGLEWIACVYVGSGGSTYYASWAKGRFTFSKTSSTTWTLQMTSLTAADTATYFCARDLSYAGDLWGPGTLVTVSS VL: DPVMTQTPASVSEPVGGTVTINCQASESISSYLAWYQQKPGQPPKLLIYGASNLASGVPSRFKGSGSGTEYTLTISDLECDDAATYYCQSAYYSNSGGHAFGGGTEVVVKG	binds	–
–	binds	antibody 3.1C1 (antibody, V domains shown, Mouse mAb, cloned as murine IgG2a LALAPG; not written separately; also called SRA-ID mAb 3.1C1) VH: QVQLQQSGPELVKPGASVRISCKASGYTFTNYFIHWVKQRPGQGLEWIGWINPGNLNTKYTEEFKGKATLTADKSSSTAYIQLNSLTSEDSAVYFCVNGNPFVYWGQGTLVTVSA VL: DIVMTQSPSSLTVIAGEKVTLNCKSSQSLLNSGNQKKYLTWLQQKPGQPPKLLIYWTSTRDSGVPDRFTGSGSGTDFTLTISSVQAEDLAVYYCQNDYSYPLTFGAGTKLEIKR	binds	–
–	binds	antibody 3.6E10 (antibody, V domains shown, Mouse mAb, cloned as murine IgG2a LALAPG) VH: QVQLQQSGAELAKPGASVKMSCKASGYIFTSYYLHWVKQRPGQGLEWIGYINPNTGYTEYTQNFKDRATLTADKSSSTAYMQLTSLTSEDSAVYFCVNGNPFVYWGQGTLVTVSA VL: DIVMTQSPSSLTVTTGEKVTMTCRSSQSLLNSGNQKNYLTWFQQKPGQPPKLLIYWTSTRYSGVPDRFTGSGSGTDFTLTISSVQAEDLAVYYCQNDYSYPLTFGAGTKLEIKR	binds	–
–	binds	antibody 3.6D12 (antibody, V domains shown, Mouse mAb (Method #3), cloned as murine IgG2a LALAPG; Early screens used hybridoma-purified antibody; also called mAb 3.6D12) VH: EVMLVESGGGLVRPGGSLKLSCTASGFTFSRCAMSWVRQTPEKRLEWVSAISRDSTYTYYSDSVKGRFTVSRDNAKNTLYLQMSSLRSEDTAMYYCARQIDDYYVDALDYWGQGTSVTVSS VL: DVQITQSPSYLAASPGETITINCRASKIISKYLAWYQEKPGKTIKLLIYSGFTLQSGIPSRFSGSGSGTDFTLTISSLEPEDFAMYYCQQHNEYPLTFGAGTKLEIKR	–	binds
–	binds	antibody 4.12E5 (antibody, V domains shown, Mouse mAb, cloned as murine IgG2a LALAPG) VH: EVQLQQSGPELVKTGASVKISCKASGYSFTGYFMHWVKQSHGKSLEWIGYISCYNGASVYNQRFKGKATFTIDTSSSTAYMQFNSLTSEDSAVYYCARDVLRYPRYAVDYWGQGTSVTVSS VL: not shown	binds	–
–	binds	antibody 4.17A5 (antibody, V domains shown, Mouse mAb (Method #4), cloned as murine IgG2a LALAPG; also called mAb 4.17A5) VH: QVQLQQSGPELLKPGASVKISCKGSGYAFSNSWINWVKLRPGQGLEWIGRIYPGDGDTKYNGKFKGKATLTADKSSSTAHMQLRSLTSVDSAVYFCARFPFGKYEGPGAMDYWGQGTSVTVSS VL: DIQMTQTTSSLSASLGDRVTISCRASQDISSYLNWYQQKPDGTIKLLIYYTSRLHSGVPSRFSGSGSGTDFSLTISNLEQEDIATYFCQQGNTLPYTFGGGTKLEIKR	–	–
